Columns and labels:
KlHIRAN = target: T1, KlHIRAN (Kluyveromyces lactis, UniProt Q6CJM4 174-341); test: EMSA; no preference for free 3'-OH; FP: 20 mM Tris pH 7.5, 50 mM (dsDNA, KlHIRAN) or 70 mM (ssDNA) NaCl, 2 mM MgCl2, 1 nM DNA, room temp; EMSA: 20 mM Tris pH 7.5, 100 mM KCl, 0.5 mM DTT, 3% glycerol, 2 mM MgCl2, 250 ug/mL BSA, 4 C; pull-down: 20 mM Tris pH 7.5, 50 mM NaCl, 4 C; conditions: protein: recombinant; tags: intein-CBD cleaved off; label: 3'-FAM
T1 sequence: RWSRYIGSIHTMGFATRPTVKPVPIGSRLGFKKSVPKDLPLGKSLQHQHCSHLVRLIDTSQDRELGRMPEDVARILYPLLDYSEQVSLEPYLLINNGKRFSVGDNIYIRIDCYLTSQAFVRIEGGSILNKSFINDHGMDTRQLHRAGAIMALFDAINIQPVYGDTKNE

ScHIRAN = target: T2, ScHIRAN (Saccharomyces cerevisiae, UniProt P32849 171-375); test: as above; conditions: protein: recombinant; tags: intein-CBD cleaved off; label: 3'-FAM
T2 sequence: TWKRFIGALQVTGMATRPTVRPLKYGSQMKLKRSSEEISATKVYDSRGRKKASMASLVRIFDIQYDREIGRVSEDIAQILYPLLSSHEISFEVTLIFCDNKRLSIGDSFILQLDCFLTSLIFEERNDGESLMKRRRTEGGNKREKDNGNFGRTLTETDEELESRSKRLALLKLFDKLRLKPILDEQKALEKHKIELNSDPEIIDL

HLTF [1] = target: T3, HLTF (Homo sapiens, UniProt Q14527 25-1009); test: pull-down; 100 mM salt; FP: 20 mM Tris pH 7.5, 50 mM (dsDNA, KlHIRAN) or 70 mM (ssDNA) NaCl, 2 mM MgCl2, 1 nM DNA, room temp; EMSA: 20 mM Tris pH 7.5, 100 mM KCl, 0.5 mM DTT, 3% glycerol, 2 mM MgCl2, 250 ug/mL BSA, 4 C; pull-down: 20 mM Tris pH 7.5, 50 mM NaCl, 4 C; conditions: protein: recombinant; tags: His (pET28a); label: 5'-biotin
T3 sequence: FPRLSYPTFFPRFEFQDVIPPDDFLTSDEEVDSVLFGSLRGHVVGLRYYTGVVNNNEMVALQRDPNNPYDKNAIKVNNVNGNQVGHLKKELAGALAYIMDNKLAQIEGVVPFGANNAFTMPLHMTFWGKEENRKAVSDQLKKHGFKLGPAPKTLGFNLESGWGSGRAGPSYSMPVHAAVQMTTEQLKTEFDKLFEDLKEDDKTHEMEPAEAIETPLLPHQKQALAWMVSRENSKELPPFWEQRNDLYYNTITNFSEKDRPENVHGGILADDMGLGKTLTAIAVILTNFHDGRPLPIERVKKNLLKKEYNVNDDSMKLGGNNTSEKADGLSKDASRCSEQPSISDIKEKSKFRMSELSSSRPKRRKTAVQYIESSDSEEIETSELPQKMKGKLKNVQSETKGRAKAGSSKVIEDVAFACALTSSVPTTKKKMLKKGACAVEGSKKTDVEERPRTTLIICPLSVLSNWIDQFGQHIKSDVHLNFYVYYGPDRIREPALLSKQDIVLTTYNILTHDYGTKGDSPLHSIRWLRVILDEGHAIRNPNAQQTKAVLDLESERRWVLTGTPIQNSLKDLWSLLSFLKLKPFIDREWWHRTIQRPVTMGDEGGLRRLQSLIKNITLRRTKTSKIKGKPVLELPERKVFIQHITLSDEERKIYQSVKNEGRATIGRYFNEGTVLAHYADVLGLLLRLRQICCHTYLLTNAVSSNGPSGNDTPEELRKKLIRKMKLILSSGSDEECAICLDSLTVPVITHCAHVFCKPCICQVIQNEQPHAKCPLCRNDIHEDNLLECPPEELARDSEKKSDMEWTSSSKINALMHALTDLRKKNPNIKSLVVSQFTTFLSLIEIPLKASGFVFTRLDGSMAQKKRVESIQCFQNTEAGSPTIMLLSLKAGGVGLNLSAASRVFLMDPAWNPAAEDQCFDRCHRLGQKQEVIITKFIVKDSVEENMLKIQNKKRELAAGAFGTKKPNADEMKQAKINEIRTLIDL

KlRad5 [2] = target: T4, KlRad5 (Kluyveromyces lactis, UniProt Q6CJM4 163-1114); test: pull-down; suppressed by SSB; all salt concentrations tested; FP: 20 mM Tris pH 7.5, 50 mM (dsDNA, KlHIRAN) or 70 mM (ssDNA) NaCl, 2 mM MgCl2, 1 nM DNA, room temp; EMSA: 20 mM Tris pH 7.5, 100 mM KCl, 0.5 mM DTT, 3% glycerol, 2 mM MgCl2, 250 ug/mL BSA, 4 C; pull-down: 20 mM Tris pH 7.5, 50 mM NaCl, 4 C; conditions: protein: recombinant; tags: none; label: 5'-biotin
T4 sequence: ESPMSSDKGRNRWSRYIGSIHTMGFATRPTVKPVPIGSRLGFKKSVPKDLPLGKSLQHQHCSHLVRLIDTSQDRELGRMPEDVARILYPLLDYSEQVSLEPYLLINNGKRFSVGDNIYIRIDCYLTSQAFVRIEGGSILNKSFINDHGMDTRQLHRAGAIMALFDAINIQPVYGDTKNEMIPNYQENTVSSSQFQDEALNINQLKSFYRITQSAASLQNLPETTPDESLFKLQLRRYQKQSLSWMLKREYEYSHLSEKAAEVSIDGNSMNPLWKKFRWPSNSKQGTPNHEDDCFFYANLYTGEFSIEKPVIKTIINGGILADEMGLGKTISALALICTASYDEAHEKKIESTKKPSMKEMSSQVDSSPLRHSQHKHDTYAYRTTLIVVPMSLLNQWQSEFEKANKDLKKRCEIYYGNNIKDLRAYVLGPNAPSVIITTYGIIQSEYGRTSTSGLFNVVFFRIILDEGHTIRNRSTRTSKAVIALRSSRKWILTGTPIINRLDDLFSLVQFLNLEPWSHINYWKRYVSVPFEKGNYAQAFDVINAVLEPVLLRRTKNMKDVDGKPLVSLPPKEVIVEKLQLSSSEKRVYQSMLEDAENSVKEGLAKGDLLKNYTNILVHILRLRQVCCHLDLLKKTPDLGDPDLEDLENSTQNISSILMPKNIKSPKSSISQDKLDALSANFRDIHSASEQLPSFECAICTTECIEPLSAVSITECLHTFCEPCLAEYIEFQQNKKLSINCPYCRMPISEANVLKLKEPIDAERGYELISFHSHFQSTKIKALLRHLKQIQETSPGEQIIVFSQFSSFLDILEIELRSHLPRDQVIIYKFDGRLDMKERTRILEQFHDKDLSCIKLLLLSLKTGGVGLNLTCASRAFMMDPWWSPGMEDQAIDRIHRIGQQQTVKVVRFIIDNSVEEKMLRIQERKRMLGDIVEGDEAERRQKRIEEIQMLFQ

ScRad5 [3] = target: T5, ScRad5 (Saccharomyces cerevisiae, UniProt P32849 1-1169); test: pull-down; FP: 20 mM Tris pH 7.5, 50 mM (dsDNA, KlHIRAN) or 70 mM (ssDNA) NaCl, 2 mM MgCl2, 1 nM DNA, room temp; EMSA: 20 mM Tris pH 7.5, 100 mM KCl, 0.5 mM DTT, 3% glycerol, 2 mM MgCl2, 250 ug/mL BSA, 4 C; pull-down: 20 mM Tris pH 7.5, 50 mM NaCl, 4 C; conditions: protein: recombinant; tags: N-terminal FLAG; label: 5'-biotin
T5 sequence: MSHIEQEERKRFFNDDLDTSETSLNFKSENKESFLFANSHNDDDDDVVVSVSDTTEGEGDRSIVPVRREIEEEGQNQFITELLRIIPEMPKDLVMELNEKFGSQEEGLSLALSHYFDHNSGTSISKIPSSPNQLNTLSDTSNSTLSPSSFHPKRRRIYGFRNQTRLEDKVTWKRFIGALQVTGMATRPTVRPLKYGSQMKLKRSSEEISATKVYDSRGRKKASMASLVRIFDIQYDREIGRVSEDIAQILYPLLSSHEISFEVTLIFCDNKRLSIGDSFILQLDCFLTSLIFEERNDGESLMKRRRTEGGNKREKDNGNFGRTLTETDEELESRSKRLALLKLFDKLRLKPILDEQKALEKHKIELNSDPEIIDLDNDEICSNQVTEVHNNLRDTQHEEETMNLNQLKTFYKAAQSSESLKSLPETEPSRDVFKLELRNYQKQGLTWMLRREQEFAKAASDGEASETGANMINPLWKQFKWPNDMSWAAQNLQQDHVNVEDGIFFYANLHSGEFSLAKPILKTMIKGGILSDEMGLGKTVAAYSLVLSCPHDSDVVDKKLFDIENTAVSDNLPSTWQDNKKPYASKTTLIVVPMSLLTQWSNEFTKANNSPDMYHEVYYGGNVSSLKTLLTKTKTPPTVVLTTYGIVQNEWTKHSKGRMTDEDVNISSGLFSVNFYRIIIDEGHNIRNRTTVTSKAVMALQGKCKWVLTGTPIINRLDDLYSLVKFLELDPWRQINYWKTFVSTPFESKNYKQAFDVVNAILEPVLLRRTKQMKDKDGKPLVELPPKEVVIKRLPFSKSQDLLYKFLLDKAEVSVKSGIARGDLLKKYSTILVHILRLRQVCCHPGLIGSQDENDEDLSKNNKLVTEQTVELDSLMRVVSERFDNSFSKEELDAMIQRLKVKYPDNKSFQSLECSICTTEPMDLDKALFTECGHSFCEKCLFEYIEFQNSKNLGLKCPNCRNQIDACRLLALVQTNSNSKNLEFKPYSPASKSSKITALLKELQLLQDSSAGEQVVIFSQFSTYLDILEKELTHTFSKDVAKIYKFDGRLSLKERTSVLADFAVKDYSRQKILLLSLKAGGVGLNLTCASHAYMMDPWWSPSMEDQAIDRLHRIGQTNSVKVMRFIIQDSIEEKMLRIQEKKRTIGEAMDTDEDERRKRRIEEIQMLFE

KlRad5 [4] = target: T4, KlRad5; test: pull-down; similar to 5'-biotin at all salt concentrations; FP: 20 mM Tris pH 7.5, 50 mM (dsDNA, KlHIRAN) or 70 mM (ssDNA) NaCl, 2 mM MgCl2, 1 nM DNA, room temp; EMSA: 20 mM Tris pH 7.5, 100 mM KCl, 0.5 mM DTT, 3% glycerol, 2 mM MgCl2, 250 ug/mL BSA, 4 C; pull-down: 20 mM Tris pH 7.5, 50 mM NaCl, 4 C; conditions: protein: recombinant; tags: none; label: 3'-biotin
ScRad5 [5] = target: T5, ScRad5; test: pull-down; similar to 5'-biotin; FP: 20 mM Tris pH 7.5, 50 mM (dsDNA, KlHIRAN) or 70 mM (ssDNA) NaCl, 2 mM MgCl2, 1 nM DNA, room temp; EMSA: 20 mM Tris pH 7.5, 100 mM KCl, 0.5 mM DTT, 3% glycerol, 2 mM MgCl2, 250 ug/mL BSA, 4 C; pull-down: 20 mM Tris pH 7.5, 50 mM NaCl, 4 C; conditions: protein: recombinant; tags: N-terminal FLAG; label: 3'-biotin
HLTF [6] = target: T3, HLTF; test: pull-down; lower salt; FP: 20 mM Tris pH 7.5, 50 mM (dsDNA, KlHIRAN) or 70 mM (ssDNA) NaCl, 2 mM MgCl2, 1 nM DNA, room temp; EMSA: 20 mM Tris pH 7.5, 100 mM KCl, 0.5 mM DTT, 3% glycerol, 2 mM MgCl2, 250 ug/mL BSA, 4 C; pull-down: 20 mM Tris pH 7.5, 50 mM NaCl, 4 C; conditions: protein: recombinant; tags: His (pET28a); label: 3'-biotin

TTTTTTTTTT (ssDNA) [dT10, 3'-FAM]: binds (KlHIRAN); binds (ScHIRAN).

TTTTTTTTTTTTTTTTTTTTTTTTT (ssDNA) [dT25, 5'-biotin]: binds (HLTF [1]); binds (KlRad5 [2]); binds (ScRad5 [3]).

TTTTTTTTTTTTTTTTTTTTTTTTT (ssDNA) [dT25, 3'-biotin]: binds (KlRad5 [4]); binds (ScRad5 [5]); binds (HLTF [6]).

From article PMC7804152, “Structural basis for the multi-activity factor Rad5 in replication stress tolerance”
